Changes are numbered by the printed parent chain.

These results are taken from patent publication US20250002610A1 (Genmab, published 2025).

The target of assay [1] is human DR4 with death domain deletion on ExpiCHO-S cells (human). Nature of the assay: flow cytometry, ExpiCHO-S cells expressing human DR4, n = 3. On the procedure:
Binding of BisG1-FAPα-FERL/DR4-FERR, BisG1-DR4-FEAL/b12-FEAR and IgG1-DR4-FERR to DR4 of various species commonly used for nonclinical toxicology studies was assessed by flow cytometry using ExpiCHO-S cells transiently expressing DR4 from different animal species. In contrast to other species, rodents only express one DR which has highest homology with human DR5. Therefore, ExpiCHO-S cells transiently expressing rat and mouse DR protein were used instead. All DR constructs lack the intracellular DD to avoid apoptosis of transfected cells upon DR(4) activation. IgG1-b12 was used as negative control.

Assay [2] deals with T1, His-tagged recombinant Human FAPα (Acro Biosystems, Cat #FAP-H5244-100ug) (human, UniProt Q12884 26-760).
T1 construct: Bought reagent; not shown: His tag
T1 sequence (looked up): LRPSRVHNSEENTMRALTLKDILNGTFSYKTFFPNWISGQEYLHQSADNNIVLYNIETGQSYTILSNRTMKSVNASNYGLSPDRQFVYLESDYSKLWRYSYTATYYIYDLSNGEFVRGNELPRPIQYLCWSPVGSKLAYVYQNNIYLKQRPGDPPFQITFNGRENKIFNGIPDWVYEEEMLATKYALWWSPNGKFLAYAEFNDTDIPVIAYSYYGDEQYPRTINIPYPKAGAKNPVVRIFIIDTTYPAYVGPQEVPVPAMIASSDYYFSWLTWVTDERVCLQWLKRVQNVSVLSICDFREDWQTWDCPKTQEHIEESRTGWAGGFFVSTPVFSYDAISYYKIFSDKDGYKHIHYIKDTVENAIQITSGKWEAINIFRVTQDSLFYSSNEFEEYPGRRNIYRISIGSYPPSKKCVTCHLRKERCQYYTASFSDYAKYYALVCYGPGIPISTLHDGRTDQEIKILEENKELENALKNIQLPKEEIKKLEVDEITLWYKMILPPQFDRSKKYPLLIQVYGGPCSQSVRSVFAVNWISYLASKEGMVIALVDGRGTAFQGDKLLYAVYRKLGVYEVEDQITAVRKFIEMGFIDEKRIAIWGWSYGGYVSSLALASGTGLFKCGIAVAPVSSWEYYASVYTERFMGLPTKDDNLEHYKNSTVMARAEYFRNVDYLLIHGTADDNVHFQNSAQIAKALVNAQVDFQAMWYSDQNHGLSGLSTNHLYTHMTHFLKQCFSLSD
The experiment in a line: BLI (Octet), antigen immobilized on AR2G sensors, average of three experiments. How it is done: (§1) Experiments were carried out while shaking at 1,000 RPM at 30° C. Amine Reactive 2nd Generation (AR2G) biosensors (Sartorius, Cat #18-5092) were activated by reaction with 20 mM EDC (N-(3-Dimethylaminopropyl)-N′-ethylcarbodiimide hydrochloride) (Sigma-Aldrich, Cat #03449) and 10 mM s-NHS (N-hydroxysulfosuccinimide sodium salt) (Sigma-Aldrich, Cat #56485) for 300 s. The activated AR2G sensors were loaded with 2.5 μg/mL His-tagged recombinant Human FAPα (Acro Biosystems, Cat #FAP-H5244-100ug) in 10 mM Sodium Acetate pH 5.0 (Sartorius, Cat #18-1069) or 2.5 μg/mL His-tagged recombinant Cynomolgus FAPα (Acro Biosystems, Cat #FAP-C52H3-100ug) in 10 mM Sodium Acetate pH 5.0 for 600 s and quenched with 1 M ethanolamine pH 8.5 (Sartorius Cat #18-1071) for 300 s. After a baseline measurement in Sample Diluent (1000 s; Sartorius, Cat #18-1104), the association (100 s) and dissociation (4,000 s) of functionally monovalent antibody was determined using a concentration range of 0.78-800 nM with two-fold dilution steps in Sample Diluent. The molecular mass of the antibodies used for the calculations was calculated from the sequences.
(§2) The Y-axis was aligned to the last 10 s of the baseline; Interstep Correction alignment to dissociation and Savitzky-Golay filtering were applied. Data traces with a response <0.05 nm were excluded from analysis. […] The data were fitted with the 1:1 Global Full fit model using a window of interest for the association of 100 s and dissociation time set 4,000 s.

Assay [3] addresses T2, His-tagged recombinant Cynomolgus FAPα (Acro Biosystems, Cat #FAP-C52H3-100ug) (cynomolgus monkey, UniProt A0A2K5VGF4 26-760).
T2 construct: Bought reagent; also called recombinant cynomolgus monkey FAPα; not shown: His tag of the vendor's construct (Acro Biosystems FAP-C52H3)
T2 sequence: T1 sequence (looked up) with S4P, V236F, E392D
The assay is described as above. On the procedure: as §1, §2

Chain of human DR4 with death domain deletion on ExpiCHO-S cells (human) (chain, as listed by the source limits assumed, stated change not applied): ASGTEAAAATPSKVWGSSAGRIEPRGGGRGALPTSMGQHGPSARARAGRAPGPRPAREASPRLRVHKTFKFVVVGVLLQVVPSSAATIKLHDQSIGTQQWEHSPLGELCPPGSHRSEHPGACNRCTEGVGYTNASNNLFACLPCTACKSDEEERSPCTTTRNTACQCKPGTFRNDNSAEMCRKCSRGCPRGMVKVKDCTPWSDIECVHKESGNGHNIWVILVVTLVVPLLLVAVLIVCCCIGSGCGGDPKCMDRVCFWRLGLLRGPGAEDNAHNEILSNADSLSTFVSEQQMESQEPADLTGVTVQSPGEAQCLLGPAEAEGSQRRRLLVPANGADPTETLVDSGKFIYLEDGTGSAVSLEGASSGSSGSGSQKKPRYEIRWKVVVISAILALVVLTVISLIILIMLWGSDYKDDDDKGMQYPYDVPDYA

B1: IgG1-DR4-FERR (antibody, V domains shown)
VH: QVQLQESGPGLVKPSGTLSLTCAVSGGSISSYSWWSWIRQPPGKGLEWIGELYHSGSTNYNPSLKSRVTISVDKSKNQFSLKLRSVTAADTAVYYCVRGVATIDYWGQGTLVTVSS
VL: QSALTQPPSASGSPGQSVTISCTGTSSDVGGYNFVSWYQQDPGKAPKLLIYEVTKRPSGVPDRFSGSKSGNTASLTVSGLQAEDEADYYCSSYAGSNNVMFGGGTKLTVLG
notes: Bivalent monoclonal IgG1 lambda
For B1, a half-maximal effect in assay [1] (EC50) was put at 0.04 µg/mL.

B2: BisG1-FAPα-FERL/DR4-FERR (bispecific antibody, human IgG1, kappa, lambda)
heavy 1: EVQLLESGGGLVQPGGSPRLSCEASGFTFSSYALSWVRQAPGKGLEWVSAISGSGGGRYYADSVKGRFTISRDNSKNTLFLQMNSLRAEDTAVYYCAKEGYSSSGTYWDHWGQGTLVTVSSASTKGPSVFPLAPSSKSTSGGTAALGCLVKDYFPEPVTVSWNSGALTSGVHTFPAVLQSSGLYSLSSVVTVPSSSLGTQTYICNVNHKPSNTKVDKRVEPKSCDKTHTCPPCPAPEFERGPSVFLFPPKPKDTLMISRTPEVTCVVVDVSHEDPEVKFNWYVDGVEVHNAKTKPREEQYNSTYRVVSVLTVLHQDWLNGKEYKCKVSNKALPAPIEKTISKAKGQPREPQVYTLPPSREEMTKNQVSLTCLVKGFYPSDIAVEWESNGQPENNYKTTPPVLDSDGSFLLYSKLTVDKSRWQQGNVFSCSVMHEALHNHYTQKSLSLSPG
light 1: AIQMTQSPSSVSASVGDRVTITCRASQGVSSWLAWYQQKPGRAPKLLIYVASTLQSGVPSRFSGSGSGTDFTLTINSLQPEDFATYYCQQANSFPPTFGQGTRLEMKRTVAAPSVFIFPPSDEQLKSGTASVVCLLNNFYPREAKVQWKVDNALQSGNSQESVTEQDSKDSTYSLSSTLTLSKADYEKHKVYACEVTHQGLSSPVTKSFNRGEC
heavy 2: QVQLQESGPGLVKPSGTLSLTCAVSGGSISSYSWWSWIRQPPGKGLEWIGELYHSGSTNYNPSLKSRVTISVDKSKNQFSLKLRSVTAADTAVYYCVRGVATIDYWGQGTLVTVSSASTKGPSVFPLAPSSKSTSGGTAALGCLVKDYFPEPVTVSWNSGALTSGVHTFPAVLQSSGLYSLSSVVTVPSSSLGTQTYICNVNHKPSNTKVDKRVEPKSCDKTHTCPPCPAPEFERGPSVFLFPPKPKDTLMISRTPEVTCVVVDVSHEDPEVKFNWYVDGVEVHNAKTKPREEQYNSTYRVVSVLTVLHQDWLNGKEYKCKVSNKALPAPIEKTISKAKGQPREPQVYTLPPSREEMTKNQVSLTCLVKGFYPSDIAVEWESNGQPENNYKTTPPVLDSDGSFFLYSRLTVDKSRWQQGNVFSCSVMHEALHNHYTQKSLSLSPG
light 2: QSALTQPPSASGSPGQSVTISCTGTSSDVGGYNFVSWYQQDPGKAPKLLIYEVTKRPSGVPDRFSGSKSGNTASLTVSGLQAEDEADYYCSSYAGSNNVMFGGGTKLTVLGQPKAAPSVTLFPPSSEELQANKATLVCLISDFYPGAVTVAWKADSSPVKAGVETTTPSKQSNNKYAASSYLSLTPEQWKSHRSYSCQVTHEGSTVEKTVAPTECS
notes: Human IgG1 bispecific made by controlled Fab-arm exchange of IgG1-FAPα-FERL and IgG1-DR4-FERR; monovalent for FAPα and for DR4; also called GEN1057
Consider B2, for which a half-maximal effect in assay [1] (EC50) was put at 0.11 µg/mL. Besides, in assay [2], the Kd is 0.026 nM, the koff came to 3e-05 s⁻¹ and the kon came to 1.1e+06 M⁻¹ s⁻¹. In assay [3], the dissociation constant (Kd) came to 0.037 nM, the dissociation rate constant (koff) came to 2.8e-05 s⁻¹ and the kon was 770000 M⁻¹ s⁻¹.

B3: BisG1-FAPα-FERL/b12-FERR (bispecific antibody, human IgG1, kappa)
heavy 1: B2 heavy 1
light 1: B2 light 1
heavy 2: QVQLVQSGAEVKKPGASVKVSCQASGYRFSNFVIHWVRQAPGQRFEWMGWINPYNGNKEFSAKFQDRVTFTADTSANTAYMELRSLRSADTAVYYCARVGPYSWDDSPQDNYYMDVWGKGTTVIVSSASTKGPSVFPLAPSSKSTSGGTAALGCLVKDYFPEPVTVSWNSGALTSGVHTFPAVLQSSGLYSLSSVVTVPSSSLGTQTYICNVNHKPSNTKVDKRVEPKSCDKTHTCPPCPAPEFERGPSVFLFPPKPKDTLMISRTPEVTCVVVDVSHEDPEVKFNWYVDGVEVHNAKTKPREEQYNSTYRVVSVLTVLHQDWLNGKEYKCKVSNKALPAPIEKTISKAKGQPREPQVYTLPPSREEMTKNQVSLTCLVKGFYPSDIAVEWESNGQPENNYKTTPPVLDSDGSFFLYSRLTVDKSRWQQGNVFSCSVMHEALHNHYTQKSLSLSPG
light 2: EIVLTQSPGTLSLSPGERATFSCRSSHSIRSRRVAWYQHKPGQAPRLVIHGVSNRASGISDRFSGSGSGTDFTLTITRVEPEDFALYYCQVYGASSYTFGQGTKLERKRTVAAPSVFIFPPSDEQLKSGTASVVCLLNNFYPREAKVQWKVDNALQSGNSQESVTEQDSKDSTYSLSSTLTLSKADYEKHKVYACEVTHQGLSSPVTKSFNRGEC
For the molecule B3, in assay [2], the Kd was determined as 0.017 nM, the off-rate constant (koff) worked out at 2.1e-05 s⁻¹ and the kon was 1.2e+06 M⁻¹ s⁻¹. Besides, in assay [3], the Kd was 0.034 nM, the koff worked out at 2.5e-05 s⁻¹ and the kon worked out at 750000 M⁻¹ s⁻¹.
